Measurements from US20110002929A1 (Ablynx, published 2011).
Residue numbers refer to the chain shown, from its start.

T1: mouse RANK-L (mouse, UniProt O35235 158-316, limits assumed)
T1 construct: also called murine RANK-L
T1 sequence (looked up): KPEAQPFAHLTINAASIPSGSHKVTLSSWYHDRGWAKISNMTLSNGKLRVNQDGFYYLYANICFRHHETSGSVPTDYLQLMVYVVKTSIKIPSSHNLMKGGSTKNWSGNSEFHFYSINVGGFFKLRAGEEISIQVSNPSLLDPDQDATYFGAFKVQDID

T2: human RANK-L (human, UniProt O14788 140-317, limits assumed)
T2 construct: Soluble protein, used coated, biotinylated or labelled in ELISA, AlphaScreen, FMAT and Biacore; also called hRANK-L; soluble human RANK-L
T2 sequence (looked up): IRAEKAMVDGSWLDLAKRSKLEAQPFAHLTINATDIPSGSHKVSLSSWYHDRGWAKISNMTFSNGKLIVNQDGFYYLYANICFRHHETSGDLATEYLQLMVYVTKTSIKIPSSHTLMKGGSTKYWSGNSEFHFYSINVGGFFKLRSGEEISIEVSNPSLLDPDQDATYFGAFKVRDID

T3: human RANK-L, full length, membrane-bound, expressed on HEK293T cells (human, UniProt O14788 1-317)
T3 construct: whole, on cells; also called hRANK-L
T3 sequence (looked up): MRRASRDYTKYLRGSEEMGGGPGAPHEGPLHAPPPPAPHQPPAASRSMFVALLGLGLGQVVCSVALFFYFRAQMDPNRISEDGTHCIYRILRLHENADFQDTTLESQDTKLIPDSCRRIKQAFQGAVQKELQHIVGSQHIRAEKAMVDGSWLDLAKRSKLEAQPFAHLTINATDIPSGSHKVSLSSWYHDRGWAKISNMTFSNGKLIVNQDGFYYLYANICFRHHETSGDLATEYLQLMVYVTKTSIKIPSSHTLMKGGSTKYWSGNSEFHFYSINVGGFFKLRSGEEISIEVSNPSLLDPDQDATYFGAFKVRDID

T4: cynomolgus RANK-L, full length, membrane-bound, expressed on HEK293T cells (cynomolgus monkey, UniProt A0A7N9DBU4 1-317)
T4 construct: whole, on cells; also called cyno RANK-L
T4 sequence: T3 sequence (looked up) with A32T, F68L, G83S, D174N, S177T, I291V

T5: CD40 ligand (UniProt P29965 113-261, limits assumed)
T5 sequence (looked up): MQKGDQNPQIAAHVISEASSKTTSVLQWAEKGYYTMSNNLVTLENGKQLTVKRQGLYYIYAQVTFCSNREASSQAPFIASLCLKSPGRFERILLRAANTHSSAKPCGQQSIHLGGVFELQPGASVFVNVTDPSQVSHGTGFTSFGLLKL

B1: RANKL13 (VHH, not shown: small tags and cut ends)
VHH: EVQLVESGGGLVQAGGSLRLSCAASGRTFRSYPMGWFRQAPGKEREFVASITGSGGSTYYADSVKGRFTISRDNAKNTVYLQMNSLRPEDTAVYSCAAYIRPDTYLSRDYRKYDYWGQGTQVTVSS
B2: RANKL18 (VHH, not shown: small tags and cut ends)
VHH: EVQLVESGGGLVQAGGSLRLSCAASGRTFSRSAMGWFRQAPGKEREFVGFITGSGGTTYYGESVKGRFTISRDNAQNPVYLQMNSLKPEDTAVYYCGVYRRTYISSTYSESSEYDYWGQGTQVTVSS

Columns and labels:
[1] = molecular target: T1, mouse RANK-L; assay: ELISA, set-up as for human RANK-L
In short: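 Nanobodies at 500 nM to 160 pM in 1% casein/PBS incubated 1 h at room temperature; binding detected via anti-myc then anti-mouse-HRP with TMB, OD 450 nm.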

[2] = molecular target: T2, human RANK-L; assay: SPR Biacore 3000, hRANK-L on CM5, 100 nM Nanobody
Protocol: Binding kinetics of the humanized versions of Nanobodu RANL13 were also analysed by Surface Plasmon Resonance (Biacore 3000). […] Nanobody binding was assessed at one concentration (100 nM). Each Nanobody was injected for 4 minutes at a flow rate of 45 μl/min to allow binding to chip-bound antigen. Next, binding buffer without Nanobody was sent over the chip at the same flow rate to allow spontaneous dissociation of bound Nanobody.

[3] = molecular target: T3, human RANK-L, full length, …; assay: FACS, HEK293T with human RANK-L, 80 pM Nanobody
Protocol: (§1) Human embryonic kidney cells (HEK293T) were grown in Dulbecco's modified Eagles's medium supplemented with 10% fetal bovine serum (FBS), […] L-glutamine, 0.4 mM sodium pyruvate. […] After 48 hours, transfected cells were subjected to FACS analysis. […] Then cells were washed three times with FACS buffer. Bound Nanobodies were detected by subsequent incubations of a primary mouse anti Myc antibody (30 min at 4° C. (2 μg/ml)) and a second incubation with goat anti mouse-Phycoerythrin (PE) (Jackson Laboratories) for another 30 min at 4° C. Finally, after washing, the cells were resuspended in PBS+10% FBS+TO-PRO®-3 (5 nM) (Molecular Probes®, Invitrogen, Merelbeke, Belgium) and cell surface fluorescence expressed as mean PE fluorescence, was measured using flow cytometry.

[4] = molecular target: T4, cynomolgus RANK-L, full length, …; assay: FACS, HEK293T with cynomolgus RANK-L, 400 pM Nanobody
Protocol: as §1

[5] = molecular target: T6, TNFα (UniProt P01375 77-233); assay: competition ELISA on RANK-L-coated plates, 1 nM Nanobody preincubated with the ligand
T6 construct: also called TNF-alpha
T6 sequence (P01375 77-233 limits assumed): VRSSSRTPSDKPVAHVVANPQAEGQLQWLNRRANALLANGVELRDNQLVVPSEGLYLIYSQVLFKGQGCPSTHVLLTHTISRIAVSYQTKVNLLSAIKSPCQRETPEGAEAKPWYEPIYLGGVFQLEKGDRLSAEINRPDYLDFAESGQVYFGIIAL

[6] = molecular target: T5, CD40 ligand; assay: as above
[7] = molecular target: T7, TRAIL (UniProt P50591 114-281, limits assumed); assay: as above
T7 construct: also called tumor necrosis factor-related apoptosis inducing ligand
T7 sequence (P50591 114-281 limits assumed): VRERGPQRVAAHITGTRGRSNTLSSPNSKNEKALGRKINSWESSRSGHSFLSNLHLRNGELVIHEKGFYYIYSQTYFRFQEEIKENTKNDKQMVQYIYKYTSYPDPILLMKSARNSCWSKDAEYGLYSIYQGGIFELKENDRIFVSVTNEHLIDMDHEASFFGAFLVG

[8] = molecular target: T4, cynomolgus RANK-L, full length, …; assay: FACS, HEK293T with cynomolgus RANK-L, 2000 pM Nanobody
Protocol: as §1

| Binder | binding result [1] | koff [2] [s⁻¹] | PE mean fluorescence [3] | PE mean fluorescence [4] | binding result [5] | binding result [6] | binding result [7] | PE mean fluorescence [8] |
| --- | --- | --- | --- | --- | --- | --- | --- | --- |
| B1 | no binding (tested: 500 nM to 160 pM) | 0.00025 | 1530 | 4110 | no binding (tested: approximately 100 nM) | no binding (tested: approximately 100 nM) | no binding (tested: approximately 100 nM) | 12400 |
| B2 | no binding (tested: 500 nM to 160 pM) | 5.6e-05 | 649 | 3490 | no binding (tested: approximately 100 nM) | no binding (tested: approximately 100 nM) | no binding (tested: approximately 100 nM) | 12000 |
